Tests used:
[1] = biological target: QCR2_HUMAN Cytochrome b-c1 complex subunit 2, mitochondrial (human) (UniProt P22695); experiment: anti-SMARCA4 (BRG1) IP, mass spectrometry, human fibroblasts
[2] = biological target: URB2_HUMAN Unhealthy ribosome biogenesis protein 2 homolog (human) (UniProt Q14146); experiment: as above
[3] = biological target: XRN2_HUMAN 5'-3' exoribonuclease 2 (human) (UniProt Q9H0D6); experiment: as above
[4] = biological target: TRA2B_HUMAN Transformer-2 protein homolog beta (human) (UniProt P62995); experiment: as above
[5] = biological target: VIME_HUMAN Vimentin (human) (UniProt P08670); experiment: as above
[6] = biological target: UCRIL HUMAN Putative cytochrome b-c1 complex subunit Rieske-like protein 1 (human) (UniProt P0C7P4); experiment: as above
[7] = biological target: TNR6B_HUMAN Trinucleotide repeat-containing gene 6B protein (human) (UniProt Q9UPQ9); experiment: as above
SSX1; SSX8 (human) = SSX1; SSX8 (human) (UniProt Q16384); experiment: MS of BAF complexes from Aska-SS cells, shControl against shSS18-SSX, Rep 2
[8] = biological target: ACL6A_HUMAN Actin-like protein 6A (human) (UniProt O96019); experiment: as above
[9] = biological target: BCL7C_HUMAN Isoform 2 of B-cell CLL/lymphoma 7 protein family member C (human) (UniProt Q8WUZ0); experiment: as above
[10] = biological target: SMRC1_HUMAN SWI/SNF complex subunit SMARCC1 (human) (UniProt Q92922); experiment: as above
[11] = biological target: SMRD1_HUMAN SWI/SNF-related matrix-associated actin-dependent regulator of chromatin subfamily D member 1 (human) (UniProt Q96GM5); experiment: as above
[12] = biological target: SNF5_HUMAN Isoform B of SWI/SNF-related matrix-associated actin-dependent regulator of chromatin subfamily B member 1 (human) (UniProt Q12824); experiment: as above
[13] = biological target: ARI1B_HUMAN Isoform 3 of AT-rich interactive domain-containing protein 1B (human) (UniProt Q8NFD5); experiment: as above
BCL7B (human) = BCL7B (human) (UniProt Q9BQE9); experiment: as above
[14] = biological target: SSXT_HUMAN Protein SSXT (human) (UniProt Q15532); experiment: as above
[15] = biological target: SMCE1_HUMAN SWI/SNF-related matrix-associated actin-dependent regulator of chromatin subfamily E member 1 (human) (UniProt Q969G3); experiment: as above
[16] = biological target: QCR2_HUMAN Cytochrome b-c1 complex subunit 2, mitochondrial (human) (UniProt P22695); experiment: anti-SMARCA4 (BRG1) IP, mass spectrometry, HEK-293T cells
[17] = biological target: URB2_HUMAN Unhealthy ribosome biogenesis protein 2 homolog (human) (UniProt Q14146); experiment: as above
[18] = biological target: ZC11A_HUMAN Zinc finger CCCH domain-containing protein 11A (human) (UniProt O75152); experiment: as above
[19] = biological target: ZN326_HUMAN DBIRD complex subunit ZNF326 (human) (UniProt Q5BKZ1); experiment: as above
[20] = biological target: UBC_HUMAN Polyubiquitin-C (human) (UniProt P0CG48); experiment: as above
[21] = biological target: XRN2_HUMAN 5'-3' exoribonuclease 2 (human) (UniProt Q9H0D6); experiment: as above
[22] = biological target: YLPM1_HUMAN Isoform 4 of YLP motif-containing protein 1 (human) (UniProt P49750); experiment: as above
[23] = biological target: TRA2B_HUMAN Transformer-2 protein homolog beta (human) (UniProt P62995); experiment: as above
[24] = biological target: VIME_HUMAN Vimentin (human) (UniProt P08670); experiment: as above
[25] = biological target: TSP1_HUMAN Thrombospondin-1 (human) (UniProt P07996); experiment: as above
[26] = biological target: UBP2L_HUMAN Isoform 5 of Ubiquitin-associated protein 2-like (human) (UniProt Q14157); experiment: as above
[27] = biological target: UCRIL HUMAN Putative cytochrome b-c1 complex subunit Rieske-like protein 1 (human) (UniProt P0C7P4); experiment: as above
[28] = biological target: TNR6B_HUMAN Trinucleotide repeat-containing gene 6B protein (human) (UniProt Q9UPQ9); experiment: as above

Work on “SMCA4_HUMAN Transcription activator BRG1 (from UniProt P51532 1-1647) (enzyme)” yielded an NSAF [1] of 0.00014, an NSAF [2] of 0 and an NSAF [3] of 0. It also gave an NSAF [4] of 0.00022, an NSAF [5] of 0.000136 and an NSAF [6] of 0.000224. For the same substance, the NSAF [7] was 6.92e-05, the LFQ intensity ratio Aska (shControl)/Aska (shSS18-SSX), norm to SMARCA4 (SSX1; SSX8 (human)) was 66.8 and the LFQ intensity ratio Aska (shControl)/Aska (shSS18-SSX), norm to SMARCA4 [8] was 1.1. For the same substance, the LFQ intensity ratio Aska (shControl)/Aska (shSS18-SSX), norm to SMARCA4 [9] was 1.54, the LFQ intensity ratio Aska (shControl)/Aska (shSS18-SSX), norm to SMARCA4 [10] was 0.622 and the LFQ intensity ratio Aska (shControl)/Aska (shSS18-SSX), norm to SMARCA4 [11] was 0.95. For the same substance, the LFQ intensity ratio Aska (shControl)/Aska (shSS18-SSX), norm to SMARCA4 [12] was 0.0637, the LFQ intensity ratio Aska (shControl)/Aska (shSS18-SSX), norm to SMARCA4 [13] was 0.65 and the LFQ intensity ratio Aska (shControl)/Aska (shSS18-SSX), norm to SMARCA4 (BCL7B (human)) was 1.13. For the same substance, the LFQ intensity ratio Aska (shControl)/Aska (shSS18-SSX), norm to SMARCA4 [14] was 1.26, the LFQ intensity ratio Aska (shControl)/Aska (shSS18-SSX), norm to SMARCA4 [15] was 0.855 and the NSAF [16] was 0. It also gave an NSAF [17] of 4.08e-05, an NSAF [18] of 7.68e-05 and an NSAF [19] of 0.000749. It also gave an NSAF [20] of 9.09e-05, an NSAF [21] of 6.55e-05 and an NSAF [22] of 0.000116. The NSAF [23] was 0, the NSAF [24] was 0 and the NSAF [25] was 0. It also gave an NSAF [26] of 5.64e-05, an NSAF [27] of 0 and an NSAF [28] of 3.4e-05.
